According to US20160159888A1 (CANCER RESEARCH TECHNOLOGY, published 2016):

Tests used:
h S100B = biological target: T1, h S100B (human, UniProt P04271); experiment: Western blot of purified S100 proteins on PVDF membrane
T1 construct: purified protein on a PVDF membrane; one of the 'other S100 family members'; also called human S100B
T1 sequence (looked up): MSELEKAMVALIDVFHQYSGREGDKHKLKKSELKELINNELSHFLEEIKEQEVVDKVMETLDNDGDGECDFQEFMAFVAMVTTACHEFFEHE

h S100A1 = biological target: T2, h S100A1 (human, UniProt P23297); experiment: as above
T2 construct: purified protein on a PVDF membrane; one of the 'other S100 family members'; also called human S100A1
T2 sequence (looked up): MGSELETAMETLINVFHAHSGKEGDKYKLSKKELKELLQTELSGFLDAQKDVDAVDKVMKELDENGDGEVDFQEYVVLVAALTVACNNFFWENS

h S100A12 = biological target: T3, h S100A12 (human, UniProt P80511); experiment: as above
T3 construct: purified protein on a PVDF membrane; one of the 'other S100 family members'; no amido black loading band is visible for this lane in the scan; also called human S100A12
T3 sequence (looked up): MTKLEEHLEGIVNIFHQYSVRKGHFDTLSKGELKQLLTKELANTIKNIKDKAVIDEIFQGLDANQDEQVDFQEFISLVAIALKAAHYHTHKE

h S100A5 = biological target: T4, h S100A5 (human, UniProt P33763); experiment: as above
T4 construct: purified protein on a PVDF membrane; one of the 'other S100 family members'; also called human S100A5
T4 sequence (looked up): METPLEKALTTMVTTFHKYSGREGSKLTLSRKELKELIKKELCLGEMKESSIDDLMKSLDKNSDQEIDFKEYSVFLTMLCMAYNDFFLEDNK

h S100A2 = biological target: T5, h S100A2 (human, UniProt P29034); experiment: as above
T5 construct: purified protein on a PVDF membrane; one of the 'other S100 family members'; its amido black loading band is very faint in the scan; also called human S100A2

h S100A9 = biological target: T6, h S100A9 (human, UniProt P06702); experiment: as above
T6 construct: purified protein on a PVDF membrane; one of the 'other S100 family members'; also called human S100A9
T6 sequence (looked up): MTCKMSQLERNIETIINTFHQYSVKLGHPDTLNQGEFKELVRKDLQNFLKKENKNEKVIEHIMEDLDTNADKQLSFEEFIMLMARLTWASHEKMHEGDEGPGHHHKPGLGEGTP

[1] = biological target: T7, S100A4 peptide 8 (FLSCIAMMCNEF, 12-mer: 78-89) (human); experiment: peptide ELISA (FIG. 4A)
T7 construct: also called P8
T7 peptide: FLSCIAMMCNEF

[2] = biological target: T8, S100A4 peptide 7 (RDNEVDFQEYCV, 12-mer: 66-77) (human); experiment: peptide ELISA (FIG. 4A)
T8 construct: also called P7
T8 peptide: RDNEVDFQEYCV

pep 1 = biological target: T9, pep 1; experiment: peptide ELISA, absorbance 450 nm (Pep-BG)
T9 construct: also called S100A4 peptide 1; #1 (10-mer: 1-10)
T9 chain: MACPLEKALD

pep 6 = biological target: T10, pep 6; experiment: peptide ELISA, absorbance 450 nm (Pep-BG)
T10 construct: also called S100A4 peptide 6; #6 (12-mer: 54-65)
T10 chain: AFQKLMSNLDSN

pep 3 = biological target: T11, pep 3; experiment: peptide ELISA, absorbance 450 nm (Pep-BG)
T11 construct: also called S100A4 peptide 3; #3 (11-mer: 21-31)
T11 chain: GKEGDKFKLNK

pep 5 = biological target: T12, pep 5; experiment: peptide ELISA, absorbance 450 nm (Pep-BG)
T12 construct: also called S100A4 peptide 5; #5 (11-mer: 43-53)
T12 chain: PSFLGKRTDEA

pep 2 = biological target: T13, pep 2; experiment: peptide ELISA, absorbance 450 nm (Pep-BG)
T13 construct: also called S100A4 peptide 2; #2 (10-mer: 11-20)
T13 chain: VMVSTFHKYS

pep 4 = biological target: T14, pep 4; experiment: peptide ELISA, absorbance 450 nm (Pep-BG)
T14 construct: also called S100A4 peptide 4; #4 (11-mer: 32-42)
T14 chain: SELKELLTREL

[3] = biological target: T15, S100A4 peptide 9 (FEGFPDKQPRKK, 12-mer: 90-101) (human); experiment: peptide ELISA, absorbance 450 nm (Pep-BG)
T15 construct: also called P9; C-terminal peptide
T15 peptide: FEGFPDKQPRKK

mouse S100A4 protein = biological target: T16, mouse S100A4 protein (mouse, UniProt P07091 2-101, limits assumed); experiment: ELISA screen of hybridoma clones on mouse S100A4
T16 construct: also called murine S100A4; recombinant mouse S100A4 protein

human S100A4 protein = biological target: T17, human S100A4 protein (human, UniProt P26447 2-101, limits assumed); experiment: Western blot of recombinant proteins and of cell extracts (FIG. 1)
T17 construct: Recombinant protein on blots and endogenous protein in extracts of human cell lines; also called human S100A4 recombinant protein

[4] = biological target: T18, recombinant S100A4 protein (species not stated for the experiment); experiment: SPR (BIAcore 2000), S100A4 amine-coupled to CM5 chip, mAb injected, 1:1 fit
T18 construct: also called immobilized S100A4; oligomeric S100A4
Description: All SPR analyses were conducted on a BIAcore 2000 system (GE-Healthcare Life Sciences, Upsala, Sweden). The experiments were performed at 25° C. using HBST/Ca (10 mM HEPES, 150 mM NaCl, 0.005% Tween® and 50 μM CaCl2) as running buffer. The S100A4 protein was immobilized on a sensor chip CM5 (GE-Healthcare, BR-1000-12) using the amine coupling kit from GE Healthcare (BR-1000-50). The flow rate was set to 5 μl/min. The flow cells were activated individually by injecting 35 μl freshly mixed 0.4 M EDC ((N-(3-dimethylaminopropyl)-N′-ethylcarbodiimide hydrochloride) in 0.05 M NHS (N-hydroxysuccinimide) solution. Then 5 μg/ml S100A4 protein diluted in 10 mM acetic acid, pH 5.0 was injected for 1 to 10 minutes until the desired level of immobilization was reached (about 400 to 800 RU). The remaining active groups were deactivated by injecting 35 μl 1 M ethanolamine (pH 8.5). All experiment included a reference surface which was prepared by activating and deactivating of the surface of flow cell 1 (FC1). The blank surface reference was used to correct for bulk effects and nonspecific binding. The channel referencing was done automatically by the BIACORE 2000 control software.
The injections were performed using the KINJECT mode (injection10 min, dissociation 20-30 min). The flow rate during injection and regeneration was kept at 50 μl/min. […]

T18 sequence (P07091 whole entry): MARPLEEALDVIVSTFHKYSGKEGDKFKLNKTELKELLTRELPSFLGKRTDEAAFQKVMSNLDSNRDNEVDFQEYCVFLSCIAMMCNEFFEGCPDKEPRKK
T17 sequence (P26447 2-101 limits assumed, one chain of several): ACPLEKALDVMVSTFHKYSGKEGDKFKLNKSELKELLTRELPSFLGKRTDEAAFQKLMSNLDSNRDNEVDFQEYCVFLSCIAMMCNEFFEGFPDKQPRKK
T5 sequence (P29034 whole entry, one chain of several): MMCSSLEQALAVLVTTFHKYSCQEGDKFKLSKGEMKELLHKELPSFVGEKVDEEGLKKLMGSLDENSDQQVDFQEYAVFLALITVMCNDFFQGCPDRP
T16 sequence (P07091 2-101 limits assumed, one chain of several): as the sequence (P26447 2-101 limits assumed, one chain of several) above, with C2R, K6E, M11I, S31T, L57V, F92C, Q96E counted along it

B1: anti-S100A4 mouse monoclonal antibody, clone 6B12 (antibody, V domains shown)
VH: DVQLQESGPGLVKPSQSLSLTCSVTGDSFTNDYYWNWIRQFPGSKLEWMGHIGYGGNINYNPSLKNRISITRDTSKNQFFLRLTSVTTEDTATYYCTRESFYDGYPFDYWGQGTLVTVSA
VL: DIQMTQTTSSLSASLGDRVTISCRASQDIRNYLNWYQQRPGGTLKLLIYYTSRLHSGVPSRFSGSGSGTDYSLTISNLEQEDIATYFCQQGNSLPRTFGGGTKLEIK
notes: constant regions are not; also called 6B12 mAb; mAb 6B12
- binding result (h S100B): no binding
- binding result (h S100A1): no binding
- binding result (h S100A12): no binding
- binding result (h S100A5): no binding
- binding result (h S100A2): no binding
- binding result (h S100A9): no binding
- binding result [1]: binds
- binding result [2]: binds
- binding result (pep 1): no binding
- binding result (pep 6): no binding
- binding result (pep 3): no binding
- binding result (pep 5): no binding
- binding result (pep 2): no binding
- binding result (pep 4): no binding
- binding result [3]: no binding
- binding result (mouse S100A4 protein): binds
- binding result (human S100A4 protein): binds
- Kd [4]: 0.114 nM
- kon [4]: 287000 M⁻¹ s⁻¹
